Substrate in data set [1]: O=C(O)/C=C(/CC(=O)O)C(=O)O
As to the kind of experiment: HPLC end-point assay. In kind it is biochemical, Escherichia coli. The conditions noted are these: 2 mM Tris-HCl, 37 °C, 10 min, 0.05-1.0 mM substrate. An excerpt:
(§1) HPLC end-point assay on PrpD

Substrate in data set [2]: CC(C(=O)O)C(O)(CC(=O)O)C(=O)O
Description: HPLC end-point assay. The data set is classed as biochemical, Escherichia coli. The conditions noted are these: 2 mM Tris-HCl, 37 °C, 10 min, 0.1-1 mM substrate.
Source text: as §1

Usually Km stands for the concentration of substrate that gives half-maximal velocity. The kcat is the maximal rate divided by the concentration of active sites. Usually kcat/Km stands for the turnover number divided by the Michaelis constant.

Residue numbers refer to the chain shown, from its start. Numbers in names are those of the source.

B1: PrpD (Escherichia coli K-12; G111T/W110V) (protein)
chain: SAQINNIRPEFDREIVDIVDYVMNYEISSKVAYDTAHYCLLDTLGCGLEALEYPACKKLLGPIVPGTVVPNGVRVPGTQFQLDPVQAAFNIGAMIRWLDFNDTWLAAEVTHPSDNLGGILATADWLSRNAVASGKAPLTMKQVLTAMIKAHEIQGCIALENSFNRVGLDHVLLVKVASTAVVAEMLGLTREEILNAVSLAWVDGQSLRTYRHAPNTGTRKSWAAGDATSRAVRLALMAKTGEMGYPSALTAPVWGFYDVSFKGESFRFQRPYGSYVMENVLFKISFPAEFHSQTAVEAAMTLYEQMQAAGKTAADIEKVTIRTHEACIRIIDKKGPLNNPADRDHCIQYMVAIPLLFGRLTAADYEDNVAQDKRIDALREKINCFEDPAFTADYHDPEKRAIANAITLEFTDGTRFEEVVVEYPIGHARRRQDGIPKLVDKFKINLARQFPTRQQQRILEVSLDRARLEQMPVNEYLDLYVI
notes: 6xHis-tagged, cloned from E. coli W into pACYCduet-1, purified anaerobically by His-tag kit
Consider B1, for which, in the data set “HPLC end-point assay [1]”, the Km was 1720 ± 250 µM, the kcat was found to be 172 ± 20 s⁻¹ and the specificity constant (kcat/Km) amounted to 101000 ± 3180 M⁻¹ s⁻¹. In “HPLC end-point assay [2]”, the Michaelis constant (Km) came out at 1930 ± 210 µM, the turnover number (kcat) is 0.023 ± 0.008 s⁻¹ and the kcat/Km came to 12 ± 6 M⁻¹ s⁻¹.

B2: PrpD (Escherichia coli K-12; G111T/I331L/W110V) (protein)
chain: B1 chain with I330L
notes: as for B1
For the protein B2, in “HPLC end-point assay [1]”, the Km stood at 720 ± 100 µM, the kcat amounted to 81.8 ± 14.1 s⁻¹ and the specificity constant (kcat/Km) is 114000 ± 14600 M⁻¹ s⁻¹. Further, in the data set “HPLC end-point assay [2]”, the Michaelis-Menten constant (Km) is 1960 ± 210 µM, the kcat came out at 0.024 ± 0.008 s⁻¹ and the kcat/Km came out at 13 ± 5 M⁻¹ s⁻¹.

B3: PrpD (Escherichia coli K-12; I331L/W110V) (protein)
chain: B1 chain with T110G, I330L
notes: as for B1
As to B3, in the data set “HPLC end-point assay [1]”, the Michaelis-Menten constant (Km) amounted to 1520 ± 80 µM, the kcat is 96.3 ± 4.55 s⁻¹ and the kcat/Km was determined as 63600 ± 3330 M⁻¹ s⁻¹. In addition, in the data set “HPLC end-point assay [2]”, the Michaelis-Menten constant (Km) is 1720 ± 540 µM, the kcat was determined as 0.035 ± 0.009 s⁻¹ and the kcat/Km was determined as 21 ± 2 M⁻¹ s⁻¹.

B4: PrpD (Escherichia coli K-12) (protein)
chain: B1 chain with V109W, T110G
notes: as for B1
Consider B4, for which, in the data set “HPLC end-point assay [1]”, the Km turned out to be 700 ± 100 µM, the catalytic constant (kcat) is 119 ± 13.4 s⁻¹ and the kcat/Km amounted to 171000 ± 5650 M⁻¹ s⁻¹. In “HPLC end-point assay [2]”, the Km came to 960 ± 850 µM, the kcat came to 0.045 ± 0.025 s⁻¹ and the kcat/Km was determined as 75 ± 54 M⁻¹ s⁻¹.

These data come from paper PMC9468356, “Kinetic compartmentalization by unnatural reaction for itaconate production” (Nature Communications, 2022).
